Measured values from patent US20120028894A1.

Molecular target: Insulin-Degrading Enzyme (IDE), species not stated (Homo sapiens (Human)) (UniProt P14735)
Assay: cell-based or functional assay

An insulin degradation by IDE without inhibitor, 16 hours at 37 C, insulin ELISA (% degradation) of 60 was found for “Insulin isolated from bovine pancreas (SIGMA) (from UniProt P01317 85-105; P01317 25-54) (ligand)” in this work.
